This assay has as its target Aiolos (mouse) (UniProt O08900). In words: cell-based or functional assay.

1 substance from patent US20050130265A1 can be followed below.

Chain of Aiolos (mouse) (O08900 other isoform, or with tags, fused parts or gaps limits assumed): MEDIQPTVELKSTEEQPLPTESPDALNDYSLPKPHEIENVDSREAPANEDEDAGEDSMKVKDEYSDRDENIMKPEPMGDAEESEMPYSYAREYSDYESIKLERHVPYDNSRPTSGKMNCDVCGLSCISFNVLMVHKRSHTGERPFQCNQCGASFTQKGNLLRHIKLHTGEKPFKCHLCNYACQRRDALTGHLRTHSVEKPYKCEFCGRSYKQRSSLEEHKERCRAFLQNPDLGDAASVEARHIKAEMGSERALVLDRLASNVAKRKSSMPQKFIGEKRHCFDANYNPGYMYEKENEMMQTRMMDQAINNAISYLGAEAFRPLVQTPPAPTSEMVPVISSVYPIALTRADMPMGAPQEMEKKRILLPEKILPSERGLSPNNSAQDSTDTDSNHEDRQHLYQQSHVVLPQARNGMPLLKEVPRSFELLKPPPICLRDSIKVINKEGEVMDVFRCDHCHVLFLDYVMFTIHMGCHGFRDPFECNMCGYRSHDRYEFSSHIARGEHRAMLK

With “Ikaros isoform Ik-6 (from UniProt Q03267 1-288)”, the CAT activity from the 4xIK-BS1-tkCAT reporter in transfected NIH-3T3 cells stood at 65 % reduction.
